One block for each substance: values may come before it.
Legend:
[1] = biological target: composite TCR 001 (human variable domains, mouse constant domains) (mouse) (UniProt P01849); experiment: Flow cytometry, dextramer against CD8a, sorted T cells expressing composite TCR 001 after 12 days of post-sort expansion, left panel
[2] = biological target: NY-ESO-1 peptide on HLA-A*02:01 (human); experiment: AP-1 luciferase reporter; Jurkat J.RT3.T3.5 with CD8A/B; HLA-A2+ 293T cells pulsed with 100 uM NY-ESO-1 peptide; full-length, on cells
[3] = biological target: HLA-A2/NY-ESO-1 (157-165) complex on cells (human); experiment: cell-based or functional assay

composite TCR 001 (human variable domains, mouse constant domains) (mouse), sequence (P01849 other isoform, or with tags, fused parts or gaps, chain 1 of 2): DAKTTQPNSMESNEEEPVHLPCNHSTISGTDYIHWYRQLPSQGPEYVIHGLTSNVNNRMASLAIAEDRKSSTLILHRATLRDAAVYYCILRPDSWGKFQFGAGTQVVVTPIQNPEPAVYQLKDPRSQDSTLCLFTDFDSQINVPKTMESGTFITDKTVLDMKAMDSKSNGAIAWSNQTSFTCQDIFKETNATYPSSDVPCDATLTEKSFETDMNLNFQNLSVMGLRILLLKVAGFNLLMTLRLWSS
composite TCR 001 (human variable domains, mouse constant domains) (mouse), sequence (P01852 other isoform, or with tags, fused parts or gaps, chain 2 of 2, further chain): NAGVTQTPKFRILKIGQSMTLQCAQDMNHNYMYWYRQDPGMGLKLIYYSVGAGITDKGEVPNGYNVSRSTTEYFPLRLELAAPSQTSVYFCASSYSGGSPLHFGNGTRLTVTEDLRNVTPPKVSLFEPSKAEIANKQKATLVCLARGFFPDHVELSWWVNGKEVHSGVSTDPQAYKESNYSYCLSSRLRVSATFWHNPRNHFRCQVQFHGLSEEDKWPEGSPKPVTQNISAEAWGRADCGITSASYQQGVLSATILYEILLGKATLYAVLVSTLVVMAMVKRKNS

Dex+ CD8+ (share of cells in the gate) [1]: 0.52
Substance: Control Dextramer (peptide-MHC)

signal to noise ratio (RLU with peptide-pulsed APCs / RLU with non-pulsed APCs) [2]: 6.3
Substance: 1G4

Signal to Noise (S/N) ratio (RLU to peptide pulsed APCs divided by RLU to non-pulsed APCs), AP-1 luciferase reporter T cells [3]: 6.3
Substance: patient-derived NY-ESO-1 specific comparator TCR 1G4
